Assay results published in patent US20210252150A1.

Assays:
[1] = biological target: HA of A/Texas/36/1991 (H1N1) (influenza A virus (H1N1))
[2] = biological target: HA of A/Solomon Islands/03/2006 (H1N1) (influenza A virus (H1N1))
[3] = biological target: HA of A/Texas/50/2012 (H3N2) (influenza A virus (H3N2))

Substance | EC50 [1] [µg/mL] | EC50 [2] [µg/mL] | EC50 [3] [µg/mL] | EC50 fold over wild-type rFluA-20 [2] [fold]
rFluA-20 heavy chain mutant C101A (antibody) | 0.15 | 0.2 | 0.39 | 
rFluA-20 light chain mutant N53A (antibody) | 0.04 | 0.05 | 0.09 | 
rFluA-20 light chain mutant Q55A (antibody) | 0.23 |  |  | > 100
